Substrate in this series: O=[N+]([O-])c1ccc(O[C@@H]2O[C@H](CO)[C@@H](O)[C@H](O)[C@H]2O)cc1
Kind of series: purified protein. As to conditions: 25 mM sodium phosphate pH 6.0, 45 °C, 1 μg/mL enzyme, 0.1-5.0 mM substrate, no inhibitor.

Broadly, the Km is the concentration of substrate that gives half-maximal velocity. As usually defined, the kcat is the maximal rate divided by the concentration of active sites. The kcat/Km is the second-order rate constant that governs catalysis at low substrate concentration.

B1: rBGLa (Limosilactobacillus antri DSM 16041) (protein)
chain: MVKIDLQFVQGLTLEERAALVSGKDFWFTAKVPGVDRMMMSDGPSGLRKQDIDVAPTDVNNSVDAVCFPSSALTASSFDDQLLFKLGHHLGVAASAEKLGVLLGPGVNIKRSPLAGRNFEYFSEDPLLAGRMGTAYVKGVQEEGVGVSVKHFAANNRENQRFTSSSNIDERALREIYLAQFERIVKEAQPATLMCSYNRLNGTLNSQNQRLLTEILRNEWGFQGLVMSDWGAVADHVAAIKAGLDLEMPGKDQASVDEIVQAVKEGRLQESTLNRSALRVLQMVEKWGKDVSRTESYDKEEQHEFARQVADDSIVLLKNDNQELPLHTGGSLAVIGELAAKPRFEGGGSSHVNAHHLVTPLAAAPTNAKYAVGYSLTETAPNEELTKEAVQLAKQSDQVVFFAGFPERMETEGFDKDSIALPANQNALLREVLKVNPHVTVVLQNGSVVEMPWADGVPAIVETYLAGEAVGEATWDILTGKVNPSGKLSESFPLRLQDNPTYGTFARDHDEEDYHEGIFVGYRYYDLHEMPVRFPFGHGLSYTDFTYSDLTVSEEDNDVKVRFTVTNSGQVAGKEVAQVYVANHVSRVEMPVKELRDFTKLALAPGESKTVTLTLPRRAFSYYNVAQEQWEADNGEYEIMVGSSSRDIRLRTTFTLTIGVNPVGEITGDTYIGDIWNDQDPKVQAALKSSGLYEVLQPMMADKDWVAISANMPLRSLAATGIQEEVRDAFLRALK
B1: the Km is 1840 ± 70 µM, the catalytic constant (kcat) turned out to be 407 s⁻¹ and the catalytic efficiency (kcat/Km) is 221000 M⁻¹ s⁻¹.

(Values after article PMC6327262.)
